These results are taken from patent publication US20160068613A1.

This assay concerns the target human neonatal Fc-receptor (FcRn) (human) (UniProt P55899). Description: FcRn affinity chromatography.

Chain of human neonatal Fc-receptor (FcRn) (human) (P55899 24-297 limits assumed, chain 1 of 2): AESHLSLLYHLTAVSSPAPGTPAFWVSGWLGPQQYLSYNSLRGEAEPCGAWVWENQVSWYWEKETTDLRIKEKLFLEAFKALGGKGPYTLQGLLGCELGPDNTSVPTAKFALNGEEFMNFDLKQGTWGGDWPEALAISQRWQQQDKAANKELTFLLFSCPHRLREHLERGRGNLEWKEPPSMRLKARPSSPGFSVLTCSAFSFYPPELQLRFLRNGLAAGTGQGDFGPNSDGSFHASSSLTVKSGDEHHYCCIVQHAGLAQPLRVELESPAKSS
Chain of human neonatal Fc-receptor (FcRn) (human) (P61769 21-119 limits assumed, chain 2 of 2, further chain): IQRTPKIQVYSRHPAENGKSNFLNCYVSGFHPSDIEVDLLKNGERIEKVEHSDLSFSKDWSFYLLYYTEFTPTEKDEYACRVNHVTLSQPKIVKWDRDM

For “IgG1 Fc-region, symmetric, L234A/L235A/P329G + Y436A”, the FcRn-affinity column retention time amounted to 41.3 min.

Substance “anti-HER2 antibody, symmetrically modified, D98E” displayed a retention time of 46.2 min. Turning to “anti-HER2 antibody, symmetrically modified, E258H”, the retention time was 45.6 min. The same measure, in the same setting: then “anti-HER2 antibody, symmetrically modified, E430H”, with 46.4 min; and “anti-HER2 antibody, symmetrically modified, K288E”, with 45.2 min; and “anti-HER2 antibody, symmetrically modified, K290H”, with 46.2 min. In turn, “anti-HER2 antibody, symmetrically modified, K317H” yielded a retention time of 46.3 min. Substance “anti-HER2 antibody, symmetrically modified, L309H” showed a retention time of 45.5 min.

In turn, “anti-HER2 antibody, symmetrically modified, N434H” registered a retention time of 52 min. Same read-out and setting: then “anti-HER2 antibody, symmetrically modified, Q311H”, with 46.3 min; and “anti-HER2 antibody, symmetrically modified, R255D”, with 41.4 min; and “anti-HER2 antibody, symmetrically modified, T256H”, with 46 min.

As for anti-HER2 antibody, wild-type, the retention time is 46.3 min. The substance “bispecific anti-VEGF/ANG2 antibody (knobs-into-holes), no FcRn affecting mutation (bispecific antibody)” registered a retention time on FcRn affinity column of 51.8 min. On to “bispecific anti-VEGF/ANG2 antibody (knobs-into-holes), one chain with H310A (bispecific antibody)”, for which the retention time on FcRn affinity column amounted to 48.4 min. As to “bispecific anti-VEGF/ANG2 antibody (knobs-into-holes), one chain with H310A/H433A/Y436A (bispecific antibody)”, the retention time on FcRn affinity column worked out at 46.7 min. The same measure, in the same setting: next, “bispecific anti-VEGF/ANG2 antibody (knobs-into-holes), one chain with H435A (bispecific antibody)”: 48.8 min; “bispecific anti-VEGF/ANG2 antibody (knobs-into-holes), one chain with I253A (bispecific antibody)”: 48.8 min. Same read-out and setting: next, “bispecific anti-VEGF/ANG2 antibody (knobs-into-holes), one chain with L251D/L314D/L432D (bispecific antibody)”: 46.3 min; “bispecific anti-VEGF/ANG2 antibody (knobs-into-holes), one chain with M252Y/S254T/T256E (bispecific antibody)”: 56.2 min.
